5 molecules from publication PMC9800556, “Kinetics of DNA strand transfer between polymerase and proofreading exonuclease active sites regulates error correction during high-fidelity replication” (The Journal of Biological Chemistry, 2022) can be followed below.

Data set [1] addresses T1, T7 DNA polymerase (T7 DNA pol; T7 gp5 + E. coli thioredoxin) (Escherichia phage T7, UniProt P00581).
T1 construct: gene 5; wild-type exo-proficient (x+) gp5 catalytic subunit, purified as previously described, reconstituted with at least twofold molar excess of E. coli thioredoxin; with Thioredoxin 1
Briefly: rapid-quench ssDNA excision, denaturing PAGE, global fit (KinTek Explorer). Particulars: read-out: Best fit. Type of data set: biochemical. From the text:
rapid-quench ssDNA excision, denaturing PAGE, global fit (KinTek Explorer) on T7 DNA polymerase (T7 DNA pol; T7 gp5 + E. coli thioredoxin) | dCMP binds to the free enzyme, acting as a weak competitive inhibitor for ssDNA binding

In data set [2] the target is T2, T7 DNA polymerase gp5 (wild-type, exo+);thioredoxin (accessory protein) (bacteriophage T7;Escherichia coli, UniProt P00581;P0AA25 1-704;2-109, |). As to the kind of experiment: equilibrium fluorescence titration (Trp-tCo FRET), hyperbolic fit; 12.5 mM Mg2+; exo site; T7 reaction buffer (composition and pH not given in the material), 12.5 mM Mg2+; 20 C stated for rapid-quench. Particulars: protein: recombinant;recombinant; tags: ;; copies: 1;1; label: tCo; single strand.

The target in data set [3] is T2, T7 DNA polymerase gp5 (wild-type, …). Briefly: equilibrium fluorescence titration (Trp-tCo FRET), quadratic fit; 2 uM thioredoxin; net Kd over pol, intermediate and exo sites; Mg2+ not stated for this titration; T7 reaction buffer (composition and pH not given in the material), 12.5 mM Mg2+; 20 C stated for rapid-quench. As to conditions: protein: recombinant;recombinant; tags: ;; copies: 1;1; label: tCo; primer/template, 18 nt template 5' overhang, 3'-terminal C:C mismatch.

For data set [4] the target is unchanged. Briefly: equilibrium fluorescence titration (Trp-tCo FRET), quadratic fit; 12.5 mM Mg2+, 2 uM thioredoxin; net Kd over all sites; T7 reaction buffer (composition and pH not given in the material), 12.5 mM Mg2+; 20 C stated for rapid-quench. Particulars: protein: recombinant;recombinant; tags: ;; copies: 1;1; label: tCo; primer/template, 18 nt template 5' overhang, A:A mismatch buried by one terminal C:G pair.

Data set [5] shares this target. Briefly: stopped-flow fluorescence anisotropy, global fit (with tCo-27-PThio titration); 12.5 mM Mg2+; k1 1100 uM-1 s-1, k-1 44 s-1; exo site; T7 reaction buffer (composition and pH not given in the material), 12.5 mM Mg2+; 20 C stated for rapid-quench. As to conditions: protein: recombinant;recombinant; tags: ;; copies: 1;1; label: 5' 6-FAM; single strand. Background: Fluorescence polarisation rises when a labelled molecule tumbles more slowly, as on binding a larger partner.

T2 sequence (P00581 whole entry, chain 1 of 2): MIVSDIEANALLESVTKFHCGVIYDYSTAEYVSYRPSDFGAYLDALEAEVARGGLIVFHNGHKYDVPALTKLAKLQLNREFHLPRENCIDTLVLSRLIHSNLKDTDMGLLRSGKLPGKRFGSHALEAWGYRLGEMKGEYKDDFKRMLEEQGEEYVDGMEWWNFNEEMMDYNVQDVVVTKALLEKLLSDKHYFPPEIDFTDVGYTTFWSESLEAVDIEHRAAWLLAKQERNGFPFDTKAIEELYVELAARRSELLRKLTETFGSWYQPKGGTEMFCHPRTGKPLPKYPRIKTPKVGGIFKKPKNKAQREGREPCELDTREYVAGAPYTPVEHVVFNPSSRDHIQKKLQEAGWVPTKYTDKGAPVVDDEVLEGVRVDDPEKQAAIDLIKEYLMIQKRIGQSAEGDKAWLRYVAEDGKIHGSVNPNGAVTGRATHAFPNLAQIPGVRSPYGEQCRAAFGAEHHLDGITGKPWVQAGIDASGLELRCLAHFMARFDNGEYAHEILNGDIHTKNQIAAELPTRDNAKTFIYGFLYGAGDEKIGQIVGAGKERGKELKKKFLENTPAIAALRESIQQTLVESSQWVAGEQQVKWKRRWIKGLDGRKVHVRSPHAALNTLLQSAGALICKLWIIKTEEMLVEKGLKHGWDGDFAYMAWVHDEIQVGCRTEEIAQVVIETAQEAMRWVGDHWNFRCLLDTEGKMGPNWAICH
T2 sequence (P0AA25 2-109, chain 2 of 2): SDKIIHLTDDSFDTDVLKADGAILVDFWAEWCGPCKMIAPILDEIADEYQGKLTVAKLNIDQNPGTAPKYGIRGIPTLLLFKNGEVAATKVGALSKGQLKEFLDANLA
T1 sequence (P00581 whole entry): as the sequence (P00581 whole entry, chain 1 of 2) above
T1 sequence (P0AA25 2-109 partner): as the sequence (P0AA25 2-109, chain 2 of 2) above

Take `Nc1ccn([C@H]2C[C@H](O)[C@@H](COP(=O)(O)O)O2)c(=O)n1` [dCMP]: the Ki in data set [1] is 5650 µM.

B1: tCo-27-PThio (ssDNA)
DNA: CCGTCGCAGCCGTCCAACCAACTACAC
modifications: tCo (1,3-diaza-2-oxophenoxazine, C analog) at position 25; Sp phosphorothioate at the 3'-terminal linkage
The Kd is the free concentration of one partner at which half of the binding sites on the other are occupied at equilibrium, for simple one-to-one binding. Consider B1, for which, in data set [2], the Kd is around 0.06 µM.

B2: tCo-27-PThio/45-3'MM-PThio (dsDNA)
DNA 1: CCGTCGCAGCCGTCCAACCAACTACAC
DNA 2: GGACGGCATTGGATCGATCTGTAGTTGGTTGGACGGCTGCGACGG
modifications: primer: tCo at position 25, Sp phosphorothioate at the 3'-terminal linkage; template: phosphorothioate at the 3'-terminal linkage
Regarding B2, the dissociation constant (Kd) in data set [3] was 0.0007 ± 0.0001 µM.

B3: tCo-27-PThio/45-BMM-PThio (dsDNA)
DNA 1: CCGTCGCAGCCGTCCAACCAACTACAC
DNA 2: GGACGGCATTGGATCGATGAGTAGTTGGTTGGACGGCTGCGACGG
modifications: primer: tCo at position 25, Sp phosphorothioate at the 3'-terminal linkage; template: phosphorothioate at the 3'-terminal linkage
Consider B3, for which the Kd in data set [4] was around 0.0005 µM.

B4: FAM-27-PThio (ssDNA)
DNA: CCGTCGCAGCCGTCCAACCAACTACAC
modifications: Sp phosphorothioate at the 3'-terminal linkage (A*C)
On to B4, for which, in data set [5], the Kd was 0.04 ± 0.0014 µM.
